Source: article PMC7332060, “Characterizing the actin-binding ability of Zasp52 and its contribution to myofibril assembly” (PLoS ONE, 2020)

B1: GST-Zasp52-PK (natural protein)
chain: MAQPQLLQIKLSRFDAQPWGFRLQGGTDFAQPLLVQKVNAGSLSEQAGLQPGDAVVKINDVDVFNLRHKDAQDIVVRSGNNFVITVQRGGSTWRPHVTPTGNVPQPNSPYLQTVTKTSLAHKQQDSQHIGCGYNNAARPFSNGGDGGVKSIVNKQYNTPVGIYSDESIAETLSAQAEVLAGGVLGVNFKKNEKEYQGDRSEVLKFLREEETGQSTPAFGNSHYEHDAPQQLQQPQQQYNQHQQHYHQQQQQQQSSTTRHVSAPVNSPKPPSTGGLPTGQNICTECERLITGVFVRIKDKNLHVECFKCATCGTSLKNQGYYNFNNKLYCDIHAKQAAINNPPTGTEGYVPVPIKPNTKLSASTISSALNSHGYGGHSNGYSNGNSTPAPAPV
B2: α-actinin (Cytoskeleton AT-01) (natural protein)
chain: MNQIEPGVQYNYVYDEDEYMIQEEEWDRDLLLDPAWEKQQRKTFTAWCNSHLRKAGTQIENIEEDFRNGLKLMLLLEVISGERLPKPDRGKMRFHKIANVNKALDYIASKGVKLVSIGAEEIVDGNVKMTLGMIWTIILRFAIQDISVEETSAKEGLLLWCQRKTAPYRNVNIQNFHTSWKDGLGLCALIHRHRPDLIDYSKLNKDDPIGNINLAMEIAEKHLDIPKMLDAEDIVNTPKPDERAIMTYVSCFYHAFAGAEQAETAANRICKVLAVNQENERLMEEYERLASELLEWIRRTIPWLENRTPEKTMKAMQKKLEDFRDYRRKHKPPKVQEKCQLEINFNTLQTKLRISNRPAFMPSEGKMVSDAGAWQRLEQAEKGYEEWLLNEIRRLERLEHLAEKFRQKASTHETWAYGKEQILLQKDYESASLTEVRALLRKHEAFESDLAAHQDRVEQIAAIAQELNELDYHDAVNVNDRCQKICDQWDRLGTLTQKRREALERTEKLLETIDQLHLEFAKRAAPFNNWMEGAMEDLQDMFIVHSIEEIQSLITAHEQFKATLPEADGERQSIMAIQNEVEKVIQSYNIRISSSNPYSTVTMDELRAKWDKVKQLVPIRDQSLQEELARQHANERLRRQFAAQANAIGPWIQNKMEEIARSSIQITGALEDQMNQLKQYEHNIINYKNNIDKLEGDHQLIQEALVFDNKHTNYTMEHIRVGWELLLTTIARTINEVETQILTRDAKGITQEQMNEFRASFNHFDRRKNGLMDHEDFRACLISMGYDLGEAEFARIMTLVDPNGQGTVTFQSFIDFMTRETADTDTAEQVIASFRILASDKPYILAEELRRELPPDQAQYCIKRMPAYSGPGSVPGALDYTAFSSALYGESDL

Columns and labels:
[1] = target: G-actin (Cytoskeleton AKL-99) (UniProt P68135 1-377); assay: SPR; surface plasmon resonance imaging (PlexArray HT); GST-Zasp52-PK printed on gold-coated chip; G-actin or α-actinin injected; PBST running buffer; 25°C; kinetic analysis with BIAevaluation 4.1; details: both partners purified
GST-Zasp52-PK = target: B1; assay: as above; details: both partners purified

Kd [1] [nM] | Kd (GST-Zasp52-PK) [nM] | Binder
1100 |  | B1
 | 86.5 | B2
